The target of assay [1] is T1, AnkB 28–965 (MBD + AI-c + AI-b) (human, UniProt Q01484-2 28-965).
T1 construct: numbers count on: human 220 kDa AnkB NM_020977.3; also called extended MBD containing the entire linker; source: E. coli BL21 (DE3), purified (Ni2+-NTA, size exclusion)
T1 sequence (looked up): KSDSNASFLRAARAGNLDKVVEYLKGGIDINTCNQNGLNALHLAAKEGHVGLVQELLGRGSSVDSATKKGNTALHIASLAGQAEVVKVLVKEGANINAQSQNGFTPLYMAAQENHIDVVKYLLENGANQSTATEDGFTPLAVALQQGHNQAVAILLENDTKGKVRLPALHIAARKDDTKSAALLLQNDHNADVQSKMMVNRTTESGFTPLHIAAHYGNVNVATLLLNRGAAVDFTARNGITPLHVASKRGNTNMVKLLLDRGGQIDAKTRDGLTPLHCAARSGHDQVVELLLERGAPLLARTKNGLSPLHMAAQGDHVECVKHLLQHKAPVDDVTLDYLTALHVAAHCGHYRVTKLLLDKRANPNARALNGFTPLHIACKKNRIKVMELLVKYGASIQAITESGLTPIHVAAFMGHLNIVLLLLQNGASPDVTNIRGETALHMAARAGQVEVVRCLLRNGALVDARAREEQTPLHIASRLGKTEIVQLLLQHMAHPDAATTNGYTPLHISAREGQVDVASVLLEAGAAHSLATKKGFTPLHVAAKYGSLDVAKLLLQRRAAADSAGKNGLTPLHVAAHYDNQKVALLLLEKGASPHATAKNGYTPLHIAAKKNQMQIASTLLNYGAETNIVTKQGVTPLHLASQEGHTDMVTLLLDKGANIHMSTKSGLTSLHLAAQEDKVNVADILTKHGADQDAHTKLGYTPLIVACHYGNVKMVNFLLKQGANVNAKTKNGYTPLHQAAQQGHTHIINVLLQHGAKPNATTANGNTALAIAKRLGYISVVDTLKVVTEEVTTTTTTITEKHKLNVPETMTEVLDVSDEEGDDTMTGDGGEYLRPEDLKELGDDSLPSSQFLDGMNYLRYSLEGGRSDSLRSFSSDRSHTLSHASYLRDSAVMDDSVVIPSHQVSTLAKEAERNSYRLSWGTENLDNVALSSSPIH
Put plainly: ITC; VP-ITC MicroCal, 25 °C; proteins in 50 mM Tris-HCl pH 7.8, 1 mM DTT, 1 mM EDTA with 100 mM or 500 mM NaCl as required; who was titrated is not told. To be noted: both partners purified.

The target of assay [2] is T2, AnkG 38–903 (MBD + AI-c + AI-b) (rat, UniProt O70511-1 38-903).
T2 construct: numbers count on: rat AnkG NM_001033984.1 (MBD-UPA); also called extended AnkG MBD; source: E. coli BL21 (DE3), purified (Ni2+-NTA, size exclusion)
T2 sequence (looked up): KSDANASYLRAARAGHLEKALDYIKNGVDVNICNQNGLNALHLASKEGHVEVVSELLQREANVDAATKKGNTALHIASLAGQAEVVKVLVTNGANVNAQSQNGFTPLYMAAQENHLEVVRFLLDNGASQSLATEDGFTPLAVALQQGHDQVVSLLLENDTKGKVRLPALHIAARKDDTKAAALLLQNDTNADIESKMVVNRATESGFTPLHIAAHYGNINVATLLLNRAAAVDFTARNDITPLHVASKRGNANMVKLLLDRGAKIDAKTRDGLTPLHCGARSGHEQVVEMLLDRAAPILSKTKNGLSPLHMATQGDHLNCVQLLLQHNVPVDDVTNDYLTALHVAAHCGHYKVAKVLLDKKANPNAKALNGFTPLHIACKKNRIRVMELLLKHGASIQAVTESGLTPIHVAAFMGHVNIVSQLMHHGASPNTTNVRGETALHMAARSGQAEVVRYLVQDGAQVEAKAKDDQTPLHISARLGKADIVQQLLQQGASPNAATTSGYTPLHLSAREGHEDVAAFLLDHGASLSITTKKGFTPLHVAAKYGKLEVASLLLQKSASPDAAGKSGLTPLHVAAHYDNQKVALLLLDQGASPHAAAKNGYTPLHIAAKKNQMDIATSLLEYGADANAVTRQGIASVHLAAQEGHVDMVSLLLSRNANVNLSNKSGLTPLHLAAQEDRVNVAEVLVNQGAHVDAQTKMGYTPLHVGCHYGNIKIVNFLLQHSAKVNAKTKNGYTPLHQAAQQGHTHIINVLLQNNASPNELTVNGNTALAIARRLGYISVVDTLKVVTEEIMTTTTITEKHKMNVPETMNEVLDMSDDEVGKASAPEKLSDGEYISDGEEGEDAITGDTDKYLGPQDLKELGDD
The assay is described as above. To be noted: both partners purified.

The results in this text go back to PMC5779224, “Autoinhibition of ankyrin-B/G membrane target bindings by intrinsically disordered segments from the tail regions” (eLife, 2017).

B1: Nav1.2 (aa 1035–1129) (domain or fragment, mouse, UniProt B1AWN6 1035-1129, looked up)
chain: KALDEIKPLEDLNNKKDSCISNHTTIEIGKDLNYLKDGNGTTSGIGSSVEKYVVDESDYMSFINNPSLTVTVPIAVGESDFENLNTEEFSSESDM
notes: source: E. coli BL21 (DE3), purified (Ni2+-NTA, size exclusion)
Take B1: the binding result in assay [1] and in assay [2] was “binds” each time.
